Measured values: US20140073518A1 (Stanford University, published 2014)
Substitutions are numbered along the chain they refer to. Names may count otherwise.

Legend:
[1] = biological target: T1, Gas6 (growth arrest-specific 6), soluble, hexahistidine-tagged (UniProt Q14393 49-678, limits assumed); assay: yeast surface display, soluble Gas6
T1 construct: also called Gas6 ligand; soluble Gas6
T1 sequence (looked up): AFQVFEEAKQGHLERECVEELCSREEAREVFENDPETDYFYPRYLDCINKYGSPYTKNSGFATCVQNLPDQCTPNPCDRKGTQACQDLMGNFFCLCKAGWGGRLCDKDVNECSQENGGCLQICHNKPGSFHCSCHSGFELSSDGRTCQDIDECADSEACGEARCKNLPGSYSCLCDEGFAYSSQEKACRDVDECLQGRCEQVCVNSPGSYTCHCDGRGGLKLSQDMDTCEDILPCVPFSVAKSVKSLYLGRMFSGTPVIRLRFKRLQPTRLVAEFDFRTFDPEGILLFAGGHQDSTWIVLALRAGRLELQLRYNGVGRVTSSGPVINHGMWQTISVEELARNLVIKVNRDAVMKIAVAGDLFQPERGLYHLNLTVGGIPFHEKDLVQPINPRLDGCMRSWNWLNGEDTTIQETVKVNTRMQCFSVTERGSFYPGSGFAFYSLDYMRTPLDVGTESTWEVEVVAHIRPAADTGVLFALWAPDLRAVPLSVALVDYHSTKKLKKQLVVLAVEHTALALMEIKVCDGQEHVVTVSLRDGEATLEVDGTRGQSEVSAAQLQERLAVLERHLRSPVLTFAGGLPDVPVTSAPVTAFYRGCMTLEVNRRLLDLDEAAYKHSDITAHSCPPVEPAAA

soluble αvβ3 integrin = biological target: T2, soluble αvβ3 integrin (UniProt P06756 31-992; P05106 27-718); assay: yeast surface display, flow cytometry
T2 construct: also called alpha v beta 3 integrin

[2] = biological target: T3, αvβ3 integrin on K562-αvβ3 cells (K562 leukemia cells transfected with αvβ3 integrin) (UniProt P06756 31-1048; P05106 27-788); assay: flow cytometry on K562-αvβ3 cells, anti-FLAG detection
T3 construct: whole, on cells; also called cell-surface αvβ3 integrin

[3] = biological target: T3, αvβ3 integrin on K562-αvβ3 cells (K562 …); assay: binding to cells that express αvβ3 integrin
[4] = biological target: T1, Gas6 (growth arrest-specific 6), …; assay: yeast surface display, flow cytometry
[5] = biological target: T4, soluble Alexa-488 labeled human Met-Fc (human, UniProt P08581 25-932, limits assumed, Alexa-488 label); assay: dual receptor direct binding assay, flow cytometry; 220 nM Met-Fc, 2 or 20 nM protein
T4 construct: not shown: Fc part

[6] = biological target: T3, αvβ3 integrin on K562-αvβ3 cells (K562 …); assay: binding titration of the soluble fusion protein on K562-αvβ3 cells, flow cytometry; the cells express αvβ3 integrin and also Met receptor
[7] = biological target: T3, αvβ3 integrin on K562-αvβ3 cells (K562 …); assay: K562-αvβ3 cell binding assay

T4 sequence (P08581 25-932 limits assumed): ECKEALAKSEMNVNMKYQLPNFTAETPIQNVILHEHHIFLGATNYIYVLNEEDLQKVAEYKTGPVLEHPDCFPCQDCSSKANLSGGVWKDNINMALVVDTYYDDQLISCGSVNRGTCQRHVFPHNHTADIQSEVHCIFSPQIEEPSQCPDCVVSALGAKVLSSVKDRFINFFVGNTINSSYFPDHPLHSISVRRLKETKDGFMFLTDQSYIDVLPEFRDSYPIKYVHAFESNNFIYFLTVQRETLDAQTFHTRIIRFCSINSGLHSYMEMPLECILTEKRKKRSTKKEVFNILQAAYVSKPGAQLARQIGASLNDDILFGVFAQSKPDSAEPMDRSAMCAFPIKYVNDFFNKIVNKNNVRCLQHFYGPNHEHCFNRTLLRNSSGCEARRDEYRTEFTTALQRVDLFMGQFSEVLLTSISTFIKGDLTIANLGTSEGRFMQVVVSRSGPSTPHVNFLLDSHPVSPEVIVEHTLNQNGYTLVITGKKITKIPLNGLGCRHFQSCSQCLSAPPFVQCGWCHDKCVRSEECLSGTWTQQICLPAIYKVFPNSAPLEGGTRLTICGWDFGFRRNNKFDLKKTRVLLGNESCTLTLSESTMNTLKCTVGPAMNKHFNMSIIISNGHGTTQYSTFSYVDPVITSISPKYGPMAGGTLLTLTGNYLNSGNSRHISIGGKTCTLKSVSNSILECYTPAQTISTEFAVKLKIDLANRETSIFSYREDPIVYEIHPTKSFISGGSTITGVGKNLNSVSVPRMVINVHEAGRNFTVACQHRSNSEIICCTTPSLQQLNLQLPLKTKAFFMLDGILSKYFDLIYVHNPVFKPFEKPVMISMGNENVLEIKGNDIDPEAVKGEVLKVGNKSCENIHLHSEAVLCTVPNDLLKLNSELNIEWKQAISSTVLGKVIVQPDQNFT
T3 sequence (P06756 31-1048, chain 1 of 2): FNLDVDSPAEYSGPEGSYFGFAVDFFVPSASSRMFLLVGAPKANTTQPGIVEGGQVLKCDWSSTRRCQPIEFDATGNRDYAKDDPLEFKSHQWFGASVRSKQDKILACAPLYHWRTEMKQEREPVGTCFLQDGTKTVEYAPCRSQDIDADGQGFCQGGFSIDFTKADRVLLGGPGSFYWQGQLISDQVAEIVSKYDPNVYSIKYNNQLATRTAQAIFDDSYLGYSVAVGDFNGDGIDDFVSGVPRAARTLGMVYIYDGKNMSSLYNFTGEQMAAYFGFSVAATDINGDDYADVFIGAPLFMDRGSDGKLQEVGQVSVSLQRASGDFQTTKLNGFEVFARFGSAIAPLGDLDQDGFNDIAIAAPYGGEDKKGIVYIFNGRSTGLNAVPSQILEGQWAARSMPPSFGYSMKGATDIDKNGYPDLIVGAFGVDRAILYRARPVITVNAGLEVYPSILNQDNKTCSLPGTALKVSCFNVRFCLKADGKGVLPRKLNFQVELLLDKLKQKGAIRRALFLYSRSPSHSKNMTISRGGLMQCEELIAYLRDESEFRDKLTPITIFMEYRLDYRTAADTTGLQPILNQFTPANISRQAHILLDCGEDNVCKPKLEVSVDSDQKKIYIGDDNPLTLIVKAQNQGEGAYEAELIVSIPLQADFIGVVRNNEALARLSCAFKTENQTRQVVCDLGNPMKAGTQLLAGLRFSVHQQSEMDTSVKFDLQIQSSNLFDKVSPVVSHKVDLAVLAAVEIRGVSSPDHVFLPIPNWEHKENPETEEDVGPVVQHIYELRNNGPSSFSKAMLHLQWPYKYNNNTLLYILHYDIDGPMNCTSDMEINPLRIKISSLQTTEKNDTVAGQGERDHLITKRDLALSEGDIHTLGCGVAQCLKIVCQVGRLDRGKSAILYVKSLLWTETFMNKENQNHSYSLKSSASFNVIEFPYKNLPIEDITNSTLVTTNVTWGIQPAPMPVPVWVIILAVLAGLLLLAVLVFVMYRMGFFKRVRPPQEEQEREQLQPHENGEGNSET
T3 sequence (P05106 27-788, chain 2 of 2): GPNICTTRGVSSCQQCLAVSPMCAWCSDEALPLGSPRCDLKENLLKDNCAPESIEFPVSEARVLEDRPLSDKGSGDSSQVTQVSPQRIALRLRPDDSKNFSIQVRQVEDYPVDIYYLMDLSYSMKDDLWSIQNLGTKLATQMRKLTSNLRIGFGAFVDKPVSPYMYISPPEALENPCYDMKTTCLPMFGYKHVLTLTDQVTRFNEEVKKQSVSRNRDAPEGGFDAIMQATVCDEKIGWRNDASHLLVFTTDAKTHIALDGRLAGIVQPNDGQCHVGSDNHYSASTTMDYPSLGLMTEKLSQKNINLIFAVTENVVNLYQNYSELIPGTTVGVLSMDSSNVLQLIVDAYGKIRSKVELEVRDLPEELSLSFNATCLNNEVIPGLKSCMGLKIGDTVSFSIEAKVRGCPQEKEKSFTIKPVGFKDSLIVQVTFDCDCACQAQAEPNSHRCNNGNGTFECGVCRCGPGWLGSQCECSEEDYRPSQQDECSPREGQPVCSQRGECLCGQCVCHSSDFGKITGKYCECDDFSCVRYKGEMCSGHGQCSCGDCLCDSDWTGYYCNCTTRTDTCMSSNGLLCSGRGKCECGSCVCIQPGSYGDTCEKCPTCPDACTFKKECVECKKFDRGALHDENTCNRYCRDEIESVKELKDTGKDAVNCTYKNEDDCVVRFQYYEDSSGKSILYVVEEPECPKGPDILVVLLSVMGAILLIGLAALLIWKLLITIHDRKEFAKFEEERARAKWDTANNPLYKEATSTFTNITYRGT
T2 sequence (P06756 31-992, chain 1 of 2): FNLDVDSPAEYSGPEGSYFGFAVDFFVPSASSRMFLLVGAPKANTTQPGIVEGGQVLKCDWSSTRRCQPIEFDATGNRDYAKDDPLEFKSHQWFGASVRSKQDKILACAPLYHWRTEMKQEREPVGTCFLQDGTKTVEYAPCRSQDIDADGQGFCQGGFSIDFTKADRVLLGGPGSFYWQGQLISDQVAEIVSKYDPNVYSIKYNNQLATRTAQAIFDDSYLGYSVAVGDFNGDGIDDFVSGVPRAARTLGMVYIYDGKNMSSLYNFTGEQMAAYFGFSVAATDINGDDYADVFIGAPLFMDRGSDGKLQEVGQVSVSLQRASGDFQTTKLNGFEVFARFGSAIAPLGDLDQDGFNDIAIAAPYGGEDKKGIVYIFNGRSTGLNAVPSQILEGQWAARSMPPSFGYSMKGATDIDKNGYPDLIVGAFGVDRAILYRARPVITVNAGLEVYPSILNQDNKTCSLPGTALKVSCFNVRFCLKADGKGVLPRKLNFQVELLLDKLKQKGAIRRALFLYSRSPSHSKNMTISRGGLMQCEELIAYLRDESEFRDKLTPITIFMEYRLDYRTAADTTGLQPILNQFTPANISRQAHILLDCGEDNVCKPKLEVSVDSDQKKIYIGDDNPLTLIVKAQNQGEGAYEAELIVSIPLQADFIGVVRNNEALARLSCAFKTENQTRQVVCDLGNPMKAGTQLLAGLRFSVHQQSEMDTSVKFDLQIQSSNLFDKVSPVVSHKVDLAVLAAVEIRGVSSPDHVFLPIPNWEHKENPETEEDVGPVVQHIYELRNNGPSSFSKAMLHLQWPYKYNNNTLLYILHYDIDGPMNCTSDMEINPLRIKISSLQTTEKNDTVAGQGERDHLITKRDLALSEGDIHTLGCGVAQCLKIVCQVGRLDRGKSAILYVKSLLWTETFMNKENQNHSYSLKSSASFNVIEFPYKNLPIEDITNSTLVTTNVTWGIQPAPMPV
T2 sequence (P05106 27-718, chain 2 of 2): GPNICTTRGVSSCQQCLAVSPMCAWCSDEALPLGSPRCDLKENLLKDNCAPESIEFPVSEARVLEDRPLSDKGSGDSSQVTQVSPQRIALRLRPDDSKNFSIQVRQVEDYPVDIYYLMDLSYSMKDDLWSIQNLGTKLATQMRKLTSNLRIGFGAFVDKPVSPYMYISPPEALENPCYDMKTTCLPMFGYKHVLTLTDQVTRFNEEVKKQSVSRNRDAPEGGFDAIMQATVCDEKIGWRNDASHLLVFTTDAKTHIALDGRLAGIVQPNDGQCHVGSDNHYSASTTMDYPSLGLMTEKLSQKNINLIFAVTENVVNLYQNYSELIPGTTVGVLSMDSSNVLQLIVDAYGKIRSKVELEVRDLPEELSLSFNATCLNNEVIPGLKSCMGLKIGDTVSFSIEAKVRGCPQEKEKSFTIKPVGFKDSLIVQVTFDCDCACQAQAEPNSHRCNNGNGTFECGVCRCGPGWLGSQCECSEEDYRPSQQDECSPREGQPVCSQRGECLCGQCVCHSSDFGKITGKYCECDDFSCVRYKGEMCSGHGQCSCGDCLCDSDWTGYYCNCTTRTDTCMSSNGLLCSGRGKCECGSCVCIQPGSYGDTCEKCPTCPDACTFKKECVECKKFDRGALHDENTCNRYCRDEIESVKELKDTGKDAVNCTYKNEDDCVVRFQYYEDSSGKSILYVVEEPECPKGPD

Does GCSWSTLARCKQDSDCLAGCVCMLEPGMRSCGS (designed binder, also called EETI-II mutants alone) [EETI-II mutant of EA 8.04 alone (expressed without Axl)] bind [1]?
Result: no binding

B1: wild-type Axl Ig1 (yeast-displayed) (receptor)
chain: APRGTQAEESPFVGNPGNITGARGLTGTLRCQLQVQGEPPEVHWLRDGQILELADSTQTQVPLGEDEQDDWIVVSQLRITSLQLSDTGQYQCLVFLGHQTFVSQPGYVGLEGLP
notes: T0017 footnote says amino acids 19-132; also called Wt Axl; wt Axl Ig1
Does B1 bind (soluble αvβ3 integrin)?
Result: no binding (tested: 20, 50 or 100 nM αvβ3 integrin)

B2: EETI 2.5D-Axl fusion protein (soluble, produced in P. pastoris) (designed binder)
chain: GCPQGRGDWAPTSCSQDSDCLAGCVCGPNGFCGSRGTQAEESPFVGNPGNITGARGLTGTLRCQLQVQGEPPEVHWLRDGQILELADSTQTQVPLGEDEQDDWIVVSQLRITSLQLSDTGQYQCLVFLGHQTFVSQPGYVGLEGLP
notes: Treated with endoH; monomeric; also called 2.5D - Axl Ig1; recombinantly produced EETI 2.5D-Axl
For B2, which Kd [2] is on record?
The Kd was 1.72 nM.

What about the Kd [3] of the same binder?
Its Kd is about 2 nM.

Does GCPQGRGDWAPTSCKQDSDCRAGCVCGPNGFCG (designed binder, also called EETI 2.5D) [EETI-II mutant 2.5D (yeast-displayed)] bind [4]?
Result: no binding (tested: 0.2, 2 or 20 nM Gas6)

Does GCLGGVALAHCKQDSDCLAGCVCHILPELCGS (designed binder, also called EETI-II mutants alone) [EETI-II mutant of EA 7.06 alone (expressed without Axl)] bind [1]?
Result: no binding

B3: AgRp7A-M2.2 fusion protein (designed binder)
chain: DYKDDDDKPRGCVRLHESCLGQQVPCCDPAATCYCSGRGDNDLVCYCRYAEGQRKRRNTIHEFKKSAKTTLIKIDPALKIKTEKVNTADQCANRCTRNKGLPFTCKAFVFDKARKRCLWFPFNSMSSGVKKEFGHEFDLYENKDYIRDCIIGNGRSYRGTVSITKSGIKCQPWSSMIPHEHSFLPSSYRGEDLRENYCRNPRGEEGGPWCFTSDPEVRYEVCDIPQCSEVETRHHHHHH
Does B3 bind [5]?
Result: binds

B4: AgRP7A-Aras4 fusion protein (soluble, FLAG and His tagged) (designed binder)
chain: B3 chain with R54G, K79R, V85A, N98S, D144A, N153R, S156N, S175A, F211Y
notes: Produced in Pichia pastoris
How did the “EC50 (read off the curve)” value [6] turn out when B4 was run?
The value was about 1 nM.

B5: AgRp7A-M2.2(D127A) fusion protein (designed binder)
chain: B3 chain with D148A
What does the source list for B5?
Kd [7]: 2.1 nM; binding result [5]: binds

B6: EETI2.5F-M2.2(D127A) fusion protein (designed binder)
chain: DYKDDDDKPRGCPRPRGDNPPLTCSQDSDCLAGCVCGPNGFCGYAEGQRKRRNTIHEFKKSAKTTLIKIDPALKIKTEKVNTADQCANRCTRNKGLPFTCKAFVFDKARKRCLWFPFNSMSSGVKKEFGHEFDLYENKDYIRACIIGNGRSYRGTVSITKSGIKCQPWSSMIPHEHSFLPSSYRGEDLRENYCRNPRGEEGGPWCFTSDPEVRYEVCDIPQCSEVETRHHHHHH
How did the Kd [7] turn out when B6 was run?
The Kd was 4.6 nM.

Does B6 bind [5]?
Result: binds

B7: EETI2.5F-M2.2 fusion protein (designed binder)
chain: B6 chain with A143D
Does B7 bind [5]?
Result: binds

Does GCALMTPSAVDCKQDSDCLAGCVCLPGMVRCGS (designed binder, also called EETI-II mutants alone) [EETI-II mutant of EA 7.01 alone (expressed without Axl)] bind [1]?
Result: no binding
